Reference: article PMC10995199, “Architecture and regulation of filamentous human cystathionine beta-synthase” (Nature Communications, 2024)

T1: full-length human cystathionine beta-synthase, N-terminal His-tag removed during purification (CBS^FL) (human), P35520
T1 chain: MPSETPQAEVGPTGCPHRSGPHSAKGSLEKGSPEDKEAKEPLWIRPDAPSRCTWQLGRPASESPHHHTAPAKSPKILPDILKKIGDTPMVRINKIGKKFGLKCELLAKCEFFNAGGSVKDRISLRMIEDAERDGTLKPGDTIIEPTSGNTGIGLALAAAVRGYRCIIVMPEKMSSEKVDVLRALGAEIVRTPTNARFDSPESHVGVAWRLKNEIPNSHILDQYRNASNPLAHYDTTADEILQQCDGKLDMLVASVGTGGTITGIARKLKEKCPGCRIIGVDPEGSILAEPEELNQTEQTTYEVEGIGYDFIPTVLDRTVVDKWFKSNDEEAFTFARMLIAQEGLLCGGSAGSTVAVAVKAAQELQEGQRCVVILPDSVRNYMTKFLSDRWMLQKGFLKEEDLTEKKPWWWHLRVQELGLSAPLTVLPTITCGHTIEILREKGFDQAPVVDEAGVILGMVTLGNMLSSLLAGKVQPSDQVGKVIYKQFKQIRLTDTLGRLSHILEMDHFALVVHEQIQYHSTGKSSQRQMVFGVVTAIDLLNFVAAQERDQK

T2: full-length human cystathionine beta-synthase with a permanent C-terminal His-tag (CBS^FL-CHis) (human), P35520
T2 chain: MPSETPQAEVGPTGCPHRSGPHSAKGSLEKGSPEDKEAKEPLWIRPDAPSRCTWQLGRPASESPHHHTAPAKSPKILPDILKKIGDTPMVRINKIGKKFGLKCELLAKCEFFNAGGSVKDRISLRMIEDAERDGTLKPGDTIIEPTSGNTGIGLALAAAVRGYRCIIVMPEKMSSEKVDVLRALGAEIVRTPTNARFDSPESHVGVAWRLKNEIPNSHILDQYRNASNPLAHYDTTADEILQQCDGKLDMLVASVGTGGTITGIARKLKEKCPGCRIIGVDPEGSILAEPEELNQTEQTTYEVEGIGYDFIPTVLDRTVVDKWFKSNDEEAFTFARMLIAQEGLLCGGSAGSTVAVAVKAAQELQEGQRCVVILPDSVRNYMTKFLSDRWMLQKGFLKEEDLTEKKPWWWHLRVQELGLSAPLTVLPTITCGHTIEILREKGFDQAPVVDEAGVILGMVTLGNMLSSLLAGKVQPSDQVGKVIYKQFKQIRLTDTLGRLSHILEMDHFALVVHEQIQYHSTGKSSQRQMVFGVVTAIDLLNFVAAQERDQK


Tests used:
Settings in all cases: remark: other sources report otherwise
[1] = biological target: T1, full-length human cystathionine …; assay: SEC; analytical Superose 6 Increase 10/300 GL; 25 mM HEPES pH 7.5, 500 mM NaCl, 0.5 mM TCEP, 5% glycerol; 250 µl loaded at 3.0 mg/ml; self-association
[2] = biological target: T1, full-length human cystathionine …; assay: native gel or EMSA; Coomassie-stained clear-native and blue-native PAGE; 25 mM HEPES pH 7.5, 200 mM NaCl, 2.0 mM TCEP; 1.0 mg/ml, 8.0 µg protein; without or with 1 mM SAM (no apparent effect on the oligomeric status); self-association
[3] = biological target: T2, full-length human cystathionine …; assay: SEC; analytical Superose 6 Increase 10/300 GL; 25 mM HEPES pH 7.5, 500 mM NaCl, 0.5 mM TCEP, 5% glycerol; 250 µl loaded at 3.0 mg/ml; self-association

| stoichiometry N [1] | stoichiometry N [2] | stoichiometry N [3] | Binder |
| --- | --- | --- | --- |
| > 4 | > 4 | – | full-length human cystathionine beta-synthase, N-terminal His-tag removed during purification (CBS^FL), P35520 1-551 (enzyme) MPSETPQAEVGPTGCPHRSGPHSAKGSLEKGSPEDKEAKEPLWIRPDAPSRCTWQLGRPASESPHHHTAPAKSPKILPDILKKIGDTPMVRINKIGKKFGLKCELLAKCEFFNAGGSVKDRISLRMIEDAERDGTLKPGDTIIEPTSGNTGIGLALAAAVRGYRCIIVMPEKMSSEKVDVLRALGAEIVRTPTNARFDSPESHVGVAWRLKNEIPNSHILDQYRNASNPLAHYDTTADEILQQCDGKLDMLVASVGTGGTITGIARKLKEKCPGCRIIGVDPEGSILAEPEELNQTEQTTYEVEGIGYDFIPTVLDRTVVDKWFKSNDEEAFTFARMLIAQEGLLCGGSAGSTVAVAVKAAQELQEGQRCVVILPDSVRNYMTKFLSDRWMLQKGFLKEEDLTEKKPWWWHLRVQELGLSAPLTVLPTITCGHTIEILREKGFDQAPVVDEAGVILGMVTLGNMLSSLLAGKVQPSDQVGKVIYKQFKQIRLTDTLGRLSHILEMDHFALVVHEQIQYHSTGKSSQRQMVFGVVTAIDLLNFVAAQERDQK |
| – | – | > 4 | full-length human cystathionine beta-synthase with a permanent C-terminal His-tag (CBS^FL-CHis), P35520 1-551 (enzyme) MPSETPQAEVGPTGCPHRSGPHSAKGSLEKGSPEDKEAKEPLWIRPDAPSRCTWQLGRPASESPHHHTAPAKSPKILPDILKKIGDTPMVRINKIGKKFGLKCELLAKCEFFNAGGSVKDRISLRMIEDAERDGTLKPGDTIIEPTSGNTGIGLALAAAVRGYRCIIVMPEKMSSEKVDVLRALGAEIVRTPTNARFDSPESHVGVAWRLKNEIPNSHILDQYRNASNPLAHYDTTADEILQQCDGKLDMLVASVGTGGTITGIARKLKEKCPGCRIIGVDPEGSILAEPEELNQTEQTTYEVEGIGYDFIPTVLDRTVVDKWFKSNDEEAFTFARMLIAQEGLLCGGSAGSTVAVAVKAAQELQEGQRCVVILPDSVRNYMTKFLSDRWMLQKGFLKEEDLTEKKPWWWHLRVQELGLSAPLTVLPTITCGHTIEILREKGFDQAPVVDEAGVILGMVTLGNMLSSLLAGKVQPSDQVGKVIYKQFKQIRLTDTLGRLSHILEMDHFALVVHEQIQYHSTGKSSQRQMVFGVVTAIDLLNFVAAQERDQK |
